Molecular target: human Hsp60 (human, UniProt P10809 27-573, biotin (biotinylated Hsp60, site not stated))
Experiment: cell-based or functional assay

Sequence of human Hsp60 (P10809 27-573): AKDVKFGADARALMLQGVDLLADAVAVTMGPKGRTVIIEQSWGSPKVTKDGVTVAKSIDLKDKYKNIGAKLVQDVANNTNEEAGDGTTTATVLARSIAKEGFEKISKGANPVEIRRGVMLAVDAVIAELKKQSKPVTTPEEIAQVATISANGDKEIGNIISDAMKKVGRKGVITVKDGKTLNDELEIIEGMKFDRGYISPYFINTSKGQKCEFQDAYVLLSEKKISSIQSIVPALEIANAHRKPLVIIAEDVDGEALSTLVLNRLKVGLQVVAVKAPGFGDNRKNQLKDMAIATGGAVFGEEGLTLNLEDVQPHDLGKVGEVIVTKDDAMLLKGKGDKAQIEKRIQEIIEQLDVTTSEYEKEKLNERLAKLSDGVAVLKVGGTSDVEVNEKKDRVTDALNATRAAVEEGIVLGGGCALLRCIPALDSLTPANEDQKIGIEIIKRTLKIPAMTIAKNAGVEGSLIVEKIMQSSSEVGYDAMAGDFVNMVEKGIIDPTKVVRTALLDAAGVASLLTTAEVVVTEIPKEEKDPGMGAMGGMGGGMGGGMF

B1: Listeria adhesion protein (LAP) of L. monocytogenes expressed on recombinant Lactobacillus paracasei (Lbp^LAP) (natural protein)
chain: MAIKENAAQEVLEVQKVIDRLADNGQKALKAFESYNQEQVDNIVHAMALAGLDQHMPLAKLAVEETGRGLYEDKCIKNIFATEYIWNNIKNNKTVGVINEDLQTGVIEIAEPVGVVAGVTPVTNPTSTTLFKAIIAIKTRNPIIFAFHPSAQRCSSAAAKVVYDAAIAAGAPEHCIQWVEKPSLEATKQLMNHDKVALVLATGGAGMVKSAYSTGKPALGVGPGNVPAYIDKTAKIKRSVNDIILSKSFDQGMICASEQAVIVDKEVAKEVKAEMEANNCYFVKGAEFKKLESYVINPEKGTLNPDVVGKSPAWIANQAGFKVPEDTKILVAEIKGVGDKYPLSHEKLSPVLAFIEAANQAEAFDRCEEMLVYGGLGHSAVIHSTDKEVQKAFGIRMKACRIIVNAPSAQGGIGDIYNGFIPSLTLGCGSYGKNSVSQNVSATNLLNVKRIADRRNNMQWFKLPPKIFFEKYSTQYLQKMEGVERVFIVTDPGMVQFKYVDVVIEHLKKRGNDVSYQVFADVEPDPSDVTVYKGAELMKDFKPDTIIALGGGSAMDAAKGMWLFYEHPEASFFGLKQKFLDIRKRTFKYPKLGGKAKFVAIPTTSGTGSEVTPFAVITDKENNIKYPLADYELTPDVAIVDAQYVTTVPAHITADTGMDVLTHAIESYVSVMASDYTRGLSIRAIELVFENLRESVLTGDPDAREKMHNASALAGMAFANAFLGINHSLAHKIGPEFHIPHGRANAILMPHVIRYNALKPKKHALFPRYESFRADEDYARISRIIGFPAATTEEGVKSLVDEIIKLGKDVGIDMSLKGQNVAKKDLDAVVDTLADRAFMDQCTTANPKQPLVSELKEIYLEAYKGV
transepithelial translocation of Lbp^LAP cells through Caco-2 monolayers (transwell, 2 h), against Lbp^WT: 5.1 fold
